Measurements published in patent publication US20070218064A1 (published 2007).

T1: recombinant human IL-23 (hrIL-23), produced at Centocor (human, UniProt P29460 23-328)
T1 sequence 1: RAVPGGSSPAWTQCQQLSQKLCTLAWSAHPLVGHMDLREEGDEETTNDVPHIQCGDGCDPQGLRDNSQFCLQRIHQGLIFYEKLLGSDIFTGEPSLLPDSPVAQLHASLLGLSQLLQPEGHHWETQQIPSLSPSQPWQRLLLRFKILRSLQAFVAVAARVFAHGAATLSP
T1 sequence 2: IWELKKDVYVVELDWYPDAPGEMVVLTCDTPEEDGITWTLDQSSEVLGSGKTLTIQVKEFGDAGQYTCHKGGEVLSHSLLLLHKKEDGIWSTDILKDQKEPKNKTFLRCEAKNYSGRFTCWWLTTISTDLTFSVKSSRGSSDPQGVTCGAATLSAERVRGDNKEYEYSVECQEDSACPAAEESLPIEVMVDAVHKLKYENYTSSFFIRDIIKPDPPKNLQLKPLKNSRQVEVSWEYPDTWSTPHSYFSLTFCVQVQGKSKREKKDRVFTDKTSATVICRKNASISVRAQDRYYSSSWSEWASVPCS

B1: mAb MOR05042 (antibody, IgG1, V domains shown)
VH: QVELVQSGAEVKKPGESLKISCKGSGYSFSNYWIGWVRQMPGKGLEWMGIIPSTYSPSFQGQVTISADKSISTAYLQWSSLKASDTAMYYCARWYYKPFDVWGQGTLVTVSS
VL: DIVLTQPPSVSGAPGQRVTISCTGSSSNIGSGYDVHWYQQLPGTAPKLLIYGNSKRPSGVPDRFSGSKSGTSASLAITGLQSEDEADYYCSSWTPSSVVFGGGTKLTVL
B2: mAb MOR05044 (antibody, IgG1, V domains shown)
VH: QVELVQSGAEVKKPGESLKISCKGSGYSFSNYWIGWVRQMPGKGLEWMGIIPSSTYSPSFQGQVTISADKSISTAYLQWSSLKASDTAMYYCARWYYKPFDVWGQGTLVTVSS
VL: DIVLTQPPSVSGAPGQRVTISCTGSSSNIGSGYDVHWYQQLPGTAPKLLIYGNSKRPSGVPDRFSGSKSGTSASLAITGLQSEDEADYYCSSWTPSSVVFGGGTKLTVL
B3: mAb MOR05041 (antibody, IgG1, V domains shown)
VH: QVELVQSGAEVKKPGESLKISCKGSGYSFSNYWIGWVRQMPGKGLEWMGIIPSTYSPSFQGQVTISADKSISTAYLQWSSLKASDTAMYYCARWYYKPFDVWGQGTLVTVSS
VL: DIVLTQPPSVSGAPGQRVTISCTGSSSNIGSGYDVHWYQQLPGTAPKLLIYGNSKRPSGVPDRFSGSKSGTSASLAITGLQSEDEADYYCSSWTPSSVVFGGGTKLTVL
B4: mAb MOR05046 (antibody, IgG1, V domains shown)
VH: QVELVQSGAEVKKPGESLKISCKGSGYSFSNYWIGWVRQMPGKGLEWMGIIDPSTYSPSFQGQVTISADKSISTAYLQWSSLKASDTAMYYCARWYYKPFDVWGQGTLVTVSS
VL: DIVLTQPPSVSGAPGQRVTISCTGSSSNIGSGYDVHWYQQLPGTAPKLLIYGNSKRPSGVPDRFSGSKSGTSASLAITGLQSEDEADYYCSSWTPSSVVFGGGTKLTVL
B5: mAb MOR05043 (antibody, IgG1, V domains shown)
VH: QVELVQSGAEVKKPGESLKISCKGSGYSFSNYWIGWVRQMPGKGLEWMGIPSTYSPSFQGQVTISADKSISTAYLQWSSLKASDTAMYYCARWYYKPFDVWGQGTLVTVSS
VL: DIVLTQPPSVSGAPGQRVTISCTGSSSNIGSGYDVHWYQQLPGTAPKLLIYGNSKRPSGVPDRFSGSKSGTSASLAITGLQSEDEADYYCSSWTPSSVVFGGGTKLTVL
B6: mAb MOR05045 (antibody, IgG1, V domains shown)
VH: QVELVQSGAEVKKPGESLKISCKGSGYSFSNYWIGWVRQMPGKGLEWMGIIPSTYSPSFQGQVTISADKSISTAYLQWSSLKASDTAMYYCARWYYKPFDVWGQGTLVTVSS
VL: DIVLTQPPSVSGAPGQRVTISCTGSSSNIGSGYDVHWYQQLPGTAPKLLIYGNSKRPSGVPDRFSGSKSGTSASLAITGLQSEDEADYYCSSWTPSSVVFGGGTKLTVL
B7: mAb MOR05058 (antibody, IgG1, V domains shown)
VH: QVELVQSGAEVKKPGESLKISCKGSGYSFSNYWIGWVRQMPGKGLEWMGIIDPSNSYTNYSPSFQGQVTISADKSISTAYLQWSSLKASDTAMYYCARWYYKPFDVWGQGTLVTVSS
VL: DIVLTQPPSVSGAPGQRVTISCTGSSSNIGSGYDVHWYQQLPGTAPKLLIYGNSKRPSGVPDRFSGSKSGTSASLAITGLQSEDEADYYCSSWTPVFGGGTKLTVL
B8: mAb MOR05059 (antibody, IgG1, V domains shown)
VH: QVELVQSGAEVKKPGESLKISCKGSGYSFSNYWIGWVRQMPGKGLEWMGIIDPSNSYTNYSPSFQGQVTISADKSISTAYLQWSSLKASDTAMYYCARWYYKPFDVWGQGTLVTVSS
VL: DIVLTQPPSVSGAPGQRVTISCTGSSSNIGSGYDVHWYQQLPGTAPKLLIYGNSKRPSGVPDRFSGSKSGTSASLAITGLQSEDEADYYCSWTSVVFGGGTKLTVL
B9: mAb MOR05038 (antibody, IgG1, V domains shown)
VH: QVELVQSGAEVKKPGSSVKVSCKASGGTFSSNYISWVRQAPGQGLEWMGIGYAQKFQGRVTITADESTSTAYMELSSLRSEDTAVYYCARSKKGMYGGWTYPLMMFDLWGQGTLVTVSS
VL: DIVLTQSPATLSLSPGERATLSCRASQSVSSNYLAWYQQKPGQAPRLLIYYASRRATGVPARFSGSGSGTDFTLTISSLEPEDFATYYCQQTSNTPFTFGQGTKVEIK
B10: mAb MOR05040 (antibody, IgG1, V domains shown)
VH: QVELVQSGAEVKKPGSSVKVSCKASGGTFSSNYISWVRQAPGQGLEWMGAYAQKFQGRVTITADESTSTAYMELSSLRSEDTAVYYCARSKKGMYGGWTYPLMMFDLWGQGTLVTVSS
VL: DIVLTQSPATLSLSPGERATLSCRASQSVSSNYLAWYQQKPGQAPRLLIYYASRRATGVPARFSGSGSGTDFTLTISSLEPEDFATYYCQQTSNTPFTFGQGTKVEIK
B11: mAb MOR05054 (antibody, IgG1, V domains shown)
VH: QVELVESGGGLVQPGGSLRLSCAASGFTFSSFGMSWVRQAPGKGLEWVSITYASVKGRFTISRDNSKNTLYLQMNSLRAEDTAVYYCARYWGTPYLMQFDNWGQGTLVTVSS
VL: DIALTQPASVSGSPGQSITISCTGTSSDVGGYNSVSWYQQHPGKAPKLMIYSVSSRPSGVSNRFSGSKSGNTASLTISGLQAEDEADYYCSSYDTNKPLVVFGGGTKLTVL
B12: mAb MOR05048 (antibody, IgG1, V domains shown)
VH: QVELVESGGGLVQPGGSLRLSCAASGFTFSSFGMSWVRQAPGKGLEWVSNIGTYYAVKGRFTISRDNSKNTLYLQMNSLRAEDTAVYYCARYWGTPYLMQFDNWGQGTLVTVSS
VL: DIALTQPASVSGSPGQSITISCTGTSSDVGGYNSVSWYQQHPGKAPKLMIYSVSSRPSGVSNRFSGSKSGNTASLTISGLQAEDEADYYCSSYDTNKPLVVFGGGTKLTVL
B13: mAb MOR05047 (antibody, IgG1, V domains shown)
VH: QVELVESGGGLVQPGGSLRLSCAASGFTFSSFGMSWVRQAPGKGLEWVSNIGTYASVKGRFTISRDNSKNTLYLQMNSLRAEDTAVYYCARYWGTPYLMQFDNWGQGTLVTVSS
VL: DIALTQPASVSGSPGQSITISCTGTSSDVGGYNSVSWYQQHPGKAPKLMIYSVSSRPSGVSNRFSGSKSGNTASLTISGLQAEDEADYYCSSYDTNKPLVVFGGGTKLTVL
B14: mAb MOR05052 (antibody, IgG1, V domains shown)
VH: QVELVESGGGLVQPGGSLRLSCAASGFTFSSFGMSWVRQAPGKGLEWVSITYASVKGRFTISRDNSKNTLYLQMNSLRAEDTAVYYCARYWGTPYLMQFDNWGQGTLVTVSS
VL: DIALTQPASVSGSPGQSITISCTGTSSDVGGYNSVSWYQQHPGKAPKLMIYSVSSRPSGVSNRFSGSKSGNTASLTISGLQAEDEADYYCSSYDTNKPLVVFGGGTKLTVL
B15: mAb MOR05049 (antibody, IgG1, V domains shown)
VH: QVELVESGGGLVQPGGSLRLSCAASGFTFSSFGMSWVRQAPGKGLEWVSITYASVKGRFTISRDNSKNTLYLQMNSLRAEDTAVYYCARYWGTPYLMQFDNWGQGTLVTVSS
VL: DIALTQPASVSGSPGQSITISCTGTSSDVGGYNSVSWYQQHPGKAPKLMIYSVSSRPSGVSNRFSGSKSGNTASLTISGLQAEDEADYYCSSYDTNKPLVVFGGGTKLTVL
B16: mAb MOR05050 (antibody, IgG1, V domains shown)
VH: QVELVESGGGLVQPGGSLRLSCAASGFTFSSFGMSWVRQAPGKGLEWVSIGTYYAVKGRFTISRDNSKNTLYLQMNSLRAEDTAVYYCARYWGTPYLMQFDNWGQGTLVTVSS
VL: DIALTQPASVSGSPGQSITISCTGTSSDVGGYNSVSWYQQHPGKAPKLMIYSVSSRPSGVSNRFSGSKSGNTASLTISGLQAEDEADYYCSSYDTNKPLVVFGGGTKLTVL
B17: mAb MOR05053 (antibody, IgG1, V domains shown)
VH: QVELVESGGGLVQPGGSLRLSCAASGFTFSSFGMSWVRQAPGKGLEWVSNITYYASVKGRFTISRDNSKNTLYLQMNSLRAEDTAVYYCARYWGTPYLMQFDNWGQGTLVTVSS
VL: DIALTQPASVSGSPGQSITISCTGTSSDVGGYNSVSWYQQHPGKAPKLMIYSVSSRPSGVSNRFSGSKSGNTASLTISGLQAEDEADYYCSSYDTNKPLVVFGGGTKLTVL

molecular target: T1, recombinant human IL-23 (hrIL-23), …; assay: cell-based or functional assay

Binder	Inhibition of IL-17 production, IC50
B1	0.00127 µg/mL
B2	0.0141 µg/mL
B3	0.00301 µg/mL
B4	0.0428 µg/mL
B5	0.0144 µg/mL
B6	0.0014 µg/mL
B7	0.00285 µg/mL
B8	0.0106 µg/mL
B9	0.0282 µg/mL
B10	0.00264 µg/mL
B11	0.00323 µg/mL
B12	0.0162 µg/mL
B13	0.0234 µg/mL
B14	0.0178 µg/mL
B15	0.0162 µg/mL
B16	0.0277 µg/mL
B17	0.00493 µg/mL
